Assay results published in patent publication US20170296524A1.

Target: T1, MCT1 (monocarboxylate transporter 1), endogenous (human), P53985
T1 chain: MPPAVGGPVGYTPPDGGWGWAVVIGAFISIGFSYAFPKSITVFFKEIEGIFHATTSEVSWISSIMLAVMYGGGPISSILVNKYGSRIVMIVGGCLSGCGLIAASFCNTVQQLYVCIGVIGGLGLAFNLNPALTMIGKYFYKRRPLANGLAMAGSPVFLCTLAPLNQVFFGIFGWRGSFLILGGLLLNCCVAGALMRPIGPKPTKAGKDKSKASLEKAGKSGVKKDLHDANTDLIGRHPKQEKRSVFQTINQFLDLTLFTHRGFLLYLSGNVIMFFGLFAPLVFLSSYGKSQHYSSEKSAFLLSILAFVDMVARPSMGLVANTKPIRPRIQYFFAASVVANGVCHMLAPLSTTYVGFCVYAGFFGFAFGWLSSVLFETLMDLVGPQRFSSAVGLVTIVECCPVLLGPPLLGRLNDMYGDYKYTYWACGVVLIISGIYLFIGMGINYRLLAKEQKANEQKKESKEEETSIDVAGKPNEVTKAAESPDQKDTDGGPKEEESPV
Experiment: tandem affinity purification of CRBN-SF, mass spectrometry
Conditions: remark: other sources report otherwise

unique peptides identified in the screen (unique peptides): 6
B1: Strep-Flag tagged CRBN (CRBN-SF), Q96SW2 1-442 (protein, human, UniProt Q96SW2 1-442, looked up, not shown: small tags and cut ends)
chain: MAGEGDQQDAAHNMGNHLPLLPAESEEEDEMEVEDQDSKEAKKPNIINFDTSLPTSHTYLGADMEEFHGRTLHDDDSCQVIPVLPQVMMILIPGQTLPLQLFHPQEVSMVRNLIQKDRTFAVLAYSNVQEREAQFGTTAEIYAYREEQDFGIEIVKVKAIGRQRFKVLELRTQSDGIQQAKVQILPECVLPSTMSAVQLESLNKCQIFPSKPVSREDQCSYKWWQKYQKRKFHCANLTSWPRWLYSLYDAETLMDRIKKQLREWDENLKDDSLPSNPIDFSYRVAACLPIDDVLRIQLLKIGSAIQRLRCELDIMNKCTSLCCKQCQETEITTKNEIFSLSLCGPMAAYVNPHGYVHETLTVYKACNLNLIGRPSTEHSWFPGYAWTVAQCKICASHIGWKFTATKKDMSPQKFWGLTRSALLPTIPDTEDEISPDKVILCL
